Experimental data published in the supplement of paper PMC9112550, “Optimization of the antimicrobial peptide Bac7 by deep mutational scanning” (BMC Biology, 2022).

Test system: Escherichia coli TOP10
Assay: shrunken log2 fold change of peptide-encoding DNA abundance (4.5 h post-induction vs induction); higher = less antimicrobial activity (less host growth inhibition)
Conditions: time post-induction: 4.5 h; library: site-saturation at positions 5, 18, 19, 20
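Also: peptides expressed intracellularly from a pBAD plasmid library in pooled LB shake-flask culture, induced with 0.3% L-arabinose, DNA abundance read by NGS, three biological replicates, DESeq2 with apeglm shrinkage.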

Sequence	shrunken log2 fold change
RRIRQRPPRLPRPRPRPDKVPRP	-0.0238
RRIRERPPRLPRPRPRPMHYPRP	-0.0285
RRIRSRPPRLPRPRPRPFYIPRP	-0.608
RRIRTRPPRLPRPRPRPNHMPRP	-0.792
RRIRLRPPRLPRPRPRPKVTPRP	-0.00182
RRIRWRPPRLPRPRPRPGQVPRP	-0.0635
RRIRDRPPRLPRPRPRPFNPPRP	-0.509
RRIRPRPPRLPRPRPRPMCHPRP	-0.22
RRIRMRPPRLPRPRPRPPINPRP	-0.195
RRIRQRPPRLPRPRPRPWSDPRP	-0.276
RRIRARPPRLPRPRPRPQWPPRP	0.366
RRIRWRPPRLPRPRPRPAPYPRP	-0.0336
RRIRVRPPRLPRPRPRPWSYPRP	-0.0283
RRIRQRPPRLPRPRPRPLLMPRP	0.181
RRIRMRPPRLPRPRPRPMAIPRP	0.227
RRIRERPPRLPRPRPRPVAIPRP	-0.121
RRIRIRPPRLPRPRPRPCLAPRP	-0.693
RRIRFRPPRLPRPRPRPTEYPRP	-0.423
RRIRIRPPRLPRPRPRPAADPRP	0.0637
RRIRIRPPRLPRPRPRPMPGPRP	-0.172
RRIRDRPPRLPRPRPRPPWSPRP	0.31
RRIRNRPPRLPRPRPRPPALPRP	0.132
RRIRMRPPRLPRPRPRPSPWPRP	0.61
RRIRHRPPRLPRPRPRPFGKPRP	0.0294
RRIRWRPPRLPRPRPRPLLEPRP	0.216

Sequence	shrunken log2 fold change
RRIRVRPPRLPRPRPRPGWSPRP	0.434
RRIRGRPPRLPRPRPRPIHGPRP	-0.161
RRIRCRPPRLPRPRPRPDGYPRP	-0.0404
RRIRFRPPRLPRPRPRPGFTPRP	-0.187
RRIRKRPPRLPRPRPRPRRKPRP	0.969
RRIRNRPPRLPRPRPRPAIDPRP	-0.0478
RRIRVRPPRLPRPRPRPPCTPRP	-0.159
RRIRRRPPRLPRPRPRPLWLPRP	-0.107
RRIRKRPPRLPRPRPRPQWYPRP	-0.145
RRIRGRPPRLPRPRPRPWCNPRP	-0.276
RRIRERPPRLPRPRPRPAVNPRP	-0.00945
RRIRMRPPRLPRPRPRPQPIPRP	-0.0134
RRIRPRPPRLPRPRPRPMVEPRP	-0.112
RRIRARPPRLPRPRPRPGLNPRP	0.196
RRIRNRPPRLPRPRPRPNEVPRP	-0.0252
RRIRPRPPRLPRPRPRPGWGPRP	0.458
RRIRERPPRLPRPRPRPYGTPRP	-0.0949
RRIRGRPPRLPRPRPRPSQTPRP	1.08
RRIRSRPPRLPRPRPRPWCWPRP	0.0877
RRIRERPPRLPRPRPRPQFIPRP	-0.014
RRIRTRPPRLPRPRPRPKYIPRP	-0.748
RRIRLRPPRLPRPRPRPQPHPRP	0.077
RRIRCRPPRLPRPRPRPKSSPRP	0.122
RRIRKRPPRLPRPRPRPYPWPRP	-0.4
RRIRHRPPRLPRPRPRPRQFPRP	-0.0158

Sequence	shrunken log2 fold change
RRIRDRPPRLPRPRPRPDDSPRP	-0.0417
RRIRMRPPRLPRPRPRPFIMPRP	-0.158
RRIRARPPRLPRPRPRPIALPRP	0.0719
RRIRNRPPRLPRPRPRPNNPPRP	-0.511
RRIRGRPPRLPRPRPRPLKQPRP	-0.115
RRIRDRPPRLPRPRPRPATAPRP	0.722
RRIRKRPPRLPRPRPRPPDYPRP	0.145
RRIRYRPPRLPRPRPRPGKDPRP	-0.148
RRIRNRPPRLPRPRPRPTPSPRP	0.338
RRIRVRPPRLPRPRPRPSKKPRP	-0.0165
RRIRWRPPRLPRPRPRPNRSPRP	-0.0777
RRIRVRPPRLPRPRPRPMQQPRP	0.108
RRIRNRPPRLPRPRPRPLYNPRP	-0.0372
RRIRNRPPRLPRPRPRPGSWPRP	0.257
RRIRKRPPRLPRPRPRPSYPPRP	-0.435
RRIRTRPPRLPRPRPRPKIMPRP	-0.519
RRIRKRPPRLPRPRPRPPYHPRP	0.0273
RRIRPRPPRLPRPRPRPTSVPRP	0.181
RRIRSRPPRLPRPRPRPGLTPRP	0.264
RRIRNRPPRLPRPRPRPWFTPRP	-0.786
RRIRWRPPRLPRPRPRPSAWPRP	0.319
RRIRQRPPRLPRPRPRPHYEPRP	-0.167
RRIRQRPPRLPRPRPRPVRAPRP	0.38
RRIRVRPPRLPRPRPRPYSGPRP	-0.00858
RRIRSRPPRLPRPRPRPVMPPRP	-0.103

Sequence	shrunken log2 fold change
RRIRARPPRLPRPRPRPCLIPRP	-0.191
RRIRYRPPRLPRPRPRPAFNPRP	-0.431
RRIRCRPPRLPRPRPRPAGLPRP	0.206
RRIRWRPPRLPRPRPRPSIGPRP	-0.175
RRIRPRPPRLPRPRPRPSAIPRP	-0.32
RRIRHRPPRLPRPRPRPNRMPRP	0.0166
RRIRQRPPRLPRPRPRPSFIPRP	-0.807
RRIRDRPPRLPRPRPRPDLRPRP	-0.0435
RRIRKRPPRLPRPRPRPQFQPRP	-0.0733
RRIRFRPPRLPRPRPRPPCPPRP	0.46
RRIRKRPPRLPRPRPRPHHEPRP	-0.0045
RRIRRRPPRLPRPRPRPATIPRP	-0.0623
RRIRSRPPRLPRPRPRPVAGPRP	0.0927
RRIRSRPPRLPRPRPRPPNVPRP	0.0837
RRIRHRPPRLPRPRPRPADLPRP	-0.0314
RRIRTRPPRLPRPRPRPMFDPRP	-0.0585
RRIRFRPPRLPRPRPRPCLAPRP	-0.245
RRIRERPPRLPRPRPRPNEFPRP	-0.0497
RRIRDRPPRLPRPRPRPHAKPRP	0.0435
RRIRRRPPRLPRPRPRPDKRPRP	-0.0396
RRIRLRPPRLPRPRPRPCIHPRP	-0.392
RRIRERPPRLPRPRPRPWWLPRP	-0.183
RRIRTRPPRLPRPRPRPLIDPRP	-0.0458
RRIRIRPPRLPRPRPRPIRQPRP	0.143
RRIRFRPPRLPRPRPRPGSSPRP	-0.0565

Sequence	shrunken log2 fold change
RRIRDRPPRLPRPRPRPLITPRP	0.189
RRIRNRPPRLPRPRPRPTRPPRP	0.663
RRIRLRPPRLPRPRPRPWTYPRP	0.0062
RRIRCRPPRLPRPRPRPNSDPRP	-0.255
RRIRERPPRLPRPRPRPSYPPRP	-0.877
RRIRHRPPRLPRPRPRPVERPRP	-0.00973
RRIRVRPPRLPRPRPRPYEAPRP	-0.157
RRIRLRPPRLPRPRPRPKTCPRP	0.118
RRIRYRPPRLPRPRPRPQGHPRP	-0.17
RRIRTRPPRLPRPRPRPWYNPRP	-0.325
RRIRERPPRLPRPRPRPFHGPRP	-0.0459
RRIRERPPRLPRPRPRPKFNPRP	-0.558
RRIRWRPPRLPRPRPRPRRPPRP	0.508
RRIRWRPPRLPRPRPRPRVRPRP	0.563
RRIRPRPPRLPRPRPRPHGHPRP	0.0412
RRIRGRPPRLPRPRPRPQWHPRP	0.0863
RRIRYRPPRLPRPRPRPQMCPRP	-0.0257
RRIRCRPPRLPRPRPRPTMPPRP	-0.281
RRIRERPPRLPRPRPRPNTYPRP	-0.667
RRIRFRPPRLPRPRPRPMMRPRP	0.126
RRIRHRPPRLPRPRPRPYFCPRP	-0.444
RRIRIRPPRLPRPRPRPGDHPRP	0.14
RRIRKRPPRLPRPRPRPEKMPRP	-0.0217
RRIRQRPPRLPRPRPRPCAHPRP	-0.256
RRIRARPPRLPRPRPRPFPQPRP	0.512

Sequence	shrunken log2 fold change
RRIRARPPRLPRPRPRPHPMPRP	-0.026
RRIRGRPPRLPRPRPRPLCHPRP	0.775
RRIRERPPRLPRPRPRPRVFPRP	0.138
RRIRVRPPRLPRPRPRPFLSPRP	-0.567
RRIRNRPPRLPRPRPRPVRAPRP	0.545
RRIRNRPPRLPRPRPRPRQNPRP	-0.118
RRIRPRPPRLPRPRPRPIWLPRP	-0.132
RRIRWRPPRLPRPRPRPLLPPRP	0.676
RRIRMRPPRLPRPRPRPDAYPRP	0.414
RRIRDRPPRLPRPRPRPPNLPRP	-0.172
RRIRIRPPRLPRPRPRPYEAPRP	-0.18
RRIRQRPPRLPRPRPRPVYNPRP	-0.0538
RRIRSRPPRLPRPRPRPWSKPRP	-0.405
RRIRERPPRLPRPRPRPPISPRP	0.0892
RRIRRRPPRLPRPRPRPMFTPRP	0.0616
RRIRGRPPRLPRPRPRPIHAPRP	0.418
RRIRGRPPRLPRPRPRPIDEPRP	0.433
RRIRGRPPRLPRPRPRPMIMPRP	-0.0509
RRIRNRPPRLPRPRPRPNNCPRP	-0.0864
RRIRERPPRLPRPRPRPKACPRP	0.0288
RRIRDRPPRLPRPRPRPYPTPRP	-0.635
RRIRRRPPRLPRPRPRPDPKPRP	0.304
RRIRIRPPRLPRPRPRPDVNPRP	0.0617
RRIRWRPPRLPRPRPRPGSAPRP	0.432
RRIRLRPPRLPRPRPRPTVSPRP	0.0646
